{"source": "patent US7790697B2", "about": "“Compositions and methods for inhibiting the synthesis or expression of MMP-1” (Trustees of Dartmouth College, priority 2004, dated 2010)", "molecules": {"B1": {"name": "MMP-1 shRNA: Vector-expressed small hairpin RNA, SEQ ID NO:1 (sense) and SEQ ID NO:2 (antisense), specific to bases 234-252 of MMP-1 mRNA (nucleic acid)", "sense": "GATCCCCACCAGATGCTGAAACCCTGTTCAAGAGACAGGGTTTCAGCATCTGGTTTTTTGGAAA", "antisense": "AGCTTTTCCAAAAAACCAGATGCTGAAACCCTGTCTCTTGAACAGGGTTTCAGCATCTGGTGGG", "modifications": "the letters are possibly those of the target site"}}, "key": {"MMP-1 protein": {"test_system": "MMP-1 protein", "experiment": "ELISA for MMP-1 protein in serum-free medium of stable MDA-231 cells", "assay_type": "cell-based, human", "details": "for ng of MMP-1 protein per μg of total protein: average ± S.D.", "description": "ELISA for MMP-1 Protein. MMP-1 protein in serum-free culture medium of stably transfected MDA-231 cells was quantified with the human MMP-1 BIOTRAK™ ELISA system that measures both latent and active enzyme (Amersham). Cells were grown in six-well culture dishes with 1 mL of serum-free medium, and after 24 hours of incubation, 100 μL of a 1:30 dilution of the medium was used for the ELISA assays. The cells remaining in the wells were lysed with 350 μL passive lysis buffer (PROMEGA®, Madison, Wis.), and 70 μl was used in a Bradford assay (BIO-RAD®, Hercules, Calif.) to determine the total protein content. The ng of MMP-1 protein from the ELISA results was normalized to μg total protein.\nAfter initial neomycin selection and isolation of individual stable cell lines, MMP-1 mRNA and protein levels were determined using quantitative RT-PCR (qRT-PCR) and ELISA. MMP-1 mRNA levels were measured in RNA harvested from stably transfected cell lines after a 24 hour incubation in serum-free medium and were normalized to GAPDH mRNA levels. MMP-1 protein levels were measured in the serum-free media of the cell lines after 24 hours of incubation and were normalized to total protein content of the cells. The ELISA measured total (active and zymogen) forms of MMP-1 protein. […] To control for differences introduced into the cell lines during selection, these three individual cell lines for each group were pooled, and all subsequent experiments were performed on pooled cells."}, "MMP-9 mRNA": {"test_system": "MMP-9 mRNA", "experiment": "Specificity qRT-PCR, MMP-9 mRNA in stable MDA-231 cells", "assay_type": "cell-based, human", "details": "stable MDA-231 cell lines, 24 hour serum-free; group average ± S.D.; P=0.1 vs empty vector", "from_the_text": "(§1) RNA Isolation and Real-Time RT-PCR. […] Real-Time PCR Primer Sequences. […] ID NO:7; MMP-1 reverse [NT] ID NO:8; MMP-2 forward [NT] ID NO:9; MMP-2 reverse [NT] ID NO:10; MMP-9 forward [NT] ID NO:11; MMP-9 reverse [NT] ID NO:12; MMP-13 forward [NT], SEQ ID NO:13; MMP-13 reverse [NT] ID NO:14; MMP-14 forward [NT] ID NO:15; MMP-14 reverse [NT] ID NO:16; GAPDH forward [NT] ID NO:17; GAPDH reverse [NT] ID NO:18; eGFP forward [NT] ID NO:19; eGFP reverse [NT] ID NO:20. Real-Time PCR Standards."}, "MDA-231 cells": {"test_system": "MDA-231 cells", "experiment": "Cell proliferation assay (MTT)", "assay_type": "cell-based", "details": "from 24 to 48 hours (in 24 hours); p=0.13 vs empty vector", "description": "Cell Proliferation Assay. The proliferation rate of the stably transfected MDA-231 cell lines at 24 and 48 hours was determined with a MTT assay as described in the manufacturer's protocol (ATCC). The optimum cell count was 10,000 cells per well of a 96-well tissue culture dish.\nTherefore, the only measured differences between the two groups of cell lines were the levels of MMP-1 mRNA and protein."}, "MMP-2 mRNA": {"test_system": "MMP-2 mRNA", "experiment": "Specificity qRT-PCR, MMP-2 mRNA in stable MDA-231 cells", "assay_type": "cell-based, human", "details": "stable MDA-231 cell lines, 24 hour serum-free; group average ± S.D.; P=0.3 vs empty vector", "from_the_text": "as §1"}, "MT1-MMP (MMP-14) mRNA": {"test_system": "MT1-MMP (MMP-14) mRNA", "experiment": "Specificity qRT-PCR, MT1-MMP (MMP-14) mRNA in stable MDA-231 cells", "assay_type": "cell-based, human", "details": "stable MDA-231 cell lines, 24 hour serum-free; group average ± S.D.; P=0.4 vs empty vector", "from_the_text": "as §1"}, "MMP-13 mRNA": {"test_system": "MMP-13 mRNA", "experiment": "Specificity qRT-PCR, MMP-13 mRNA in stable MDA-231 cells", "assay_type": "cell-based, human", "details": "stable MDA-231 cell lines, 24 hour serum-free; group average ± S.D.; P=0.3 vs empty vector", "from_the_text": "as §1"}}}
{"molecule": "B1", "values": [{"measurement": "ng of MMP-1 protein per μg of total protein", "setting": "MMP-1 protein; Group of cell lines D1, Y2, Y7, P=0.002 vs empty vector", "value": "0.46 ± 0.04 ng per μg of total protein"}, {"measurement": "ng of MMP-1 protein per μg of total protein", "setting": "MMP-1 protein; MDA-231 cell line D1", "value": "0.49 ± 0.03 ng per μg of total protein"}, {"measurement": "ng of MMP-1 protein per μg of total protein", "setting": "MMP-1 protein; MDA-231 cell line Y2", "value": "0.47 ± 0.01 ng per μg of total protein"}, {"measurement": "ng of MMP-1 protein per μg of total protein", "setting": "MMP-1 protein; MDA-231 cell line Y7", "value": "0.42 ± 0.04 ng per μg of total protein"}, {"measurement": "reduction in MMP-1 protein levels compared to empty vector cell lines", "setting": "MMP-1 protein; three stable MDA-231 cell lines, 24 hour serum-free medium", "value": "greater than 90%"}, {"measurement": "MMP-9 mRNA level", "setting": "MMP-9 mRNA", "value": "197.3 ± 106 copies of the target gene/pg GAPDH"}, {"measurement": "fold increase in metabolic activity", "setting": "MDA-231 cells", "value": "2.03±0.06", "unit": "fold"}, {"measurement": "MMP-2 mRNA level", "setting": "MMP-2 mRNA", "value": "8.8 ± 7.8 copies of the target gene/pg GAPDH"}, {"measurement": "MT1-MMP mRNA level", "setting": "MT1-MMP (MMP-14) mRNA", "value": "107000 ± 46000 copies of the target gene/pg GAPDH"}, {"measurement": "MMP-13 mRNA level", "setting": "MMP-13 mRNA", "value": "0.5 ± 0.2 copies of the target gene/pg GAPDH"}]}
